Experimental data published in PMC9239190.
Changes are numbered by the printed parent chain.

What was measured:
[1] = molecular target: T1, AdpA (Streptomyces coelicolor) (UniProt Q9L062); test: EMSA; details: EMSA: 20 mM Tris-HCl, 2 mM EDTA, 20 mM KCl, 0.5 mM DTT, pH 8.0, 30 C 20 min, 16.5-22 nM probe; FP: 10 mM Tris-HCl, 75 mM NaCl, pH 7.5, 37 C 15 min, 1 nM FAM …
T1 sequence: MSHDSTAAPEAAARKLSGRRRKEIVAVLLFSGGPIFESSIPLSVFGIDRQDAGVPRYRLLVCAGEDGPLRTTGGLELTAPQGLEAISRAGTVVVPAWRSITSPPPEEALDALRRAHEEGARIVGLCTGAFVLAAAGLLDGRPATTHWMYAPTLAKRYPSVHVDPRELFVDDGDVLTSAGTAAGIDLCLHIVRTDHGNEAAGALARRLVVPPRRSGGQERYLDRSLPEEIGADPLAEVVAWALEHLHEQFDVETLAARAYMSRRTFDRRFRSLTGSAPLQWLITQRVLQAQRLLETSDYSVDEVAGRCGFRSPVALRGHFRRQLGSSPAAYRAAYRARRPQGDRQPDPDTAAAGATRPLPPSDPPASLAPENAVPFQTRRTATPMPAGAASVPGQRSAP

[2] = molecular target: T2, AdpA C62S C62S (Streptomyces coelicolor) (UniProt Q9L062); test: EMSA; details: EMSA: 20 mM Tris-HCl, 2 mM EDTA, 20 mM KCl, 0.5 mM DTT, pH 8.0, 30 C 20 min, 16.5-22 nM probe; FP: 10 mM Tris-HCl, 75 mM NaCl, pH 7.5, 37 C 15 min, 1 nM FAM …
T2 sequence: T1 sequence with C62S

| Sequence | binding [1] | binding [2] |
| --- | --- | --- |
| ACACATCCCGCATCGGTGATTACATGGACACGTCCCAATAAGTTGAATCTCATCTGCGCCCCCGTCGAGATTCTCCGTCTCCTGGGGGCGACAATAACAGGCCTACTCAACAGATTTCAATGTGCTTGCCGTCACAAGCGATCTCCTATTGATCAAAAATTAATCAGTGCAGCGAGCTGCACTGATTAATTTTTGCTGGATTTTACCGAGAGGCAGTGGTCGAGGCTTCCGAATCAATAGAATCTGGCATTCCTGATACGGCTGGGTCC (double strand) [PactII-4 probe] | binds |  |
| GCACTCCAGTCGGTTACCCAGCCCATACCGGCGCCGTCCTCTCCCGAATCGAGGCTCCCCCACGGCGGCAGCGGCATATTCACCGCCGCCAGTTGAGGACGTTACGGAAGGTGGGCACAGCGCAACACCCCCTTCGGGCCCAATCTTGAATGGCCCGAACGGACTATGGGTAAGCGGCAGATCACCCGGGGGAGTGAGCTGGCGACATGCGCGACGATCCCGACATTCAGGTCATCTCTGTTGCGCCACAACGGACACCGATTGACACACGAGGCGGATTCGGA (double strand) [PwblA probe] | binds | binds |
